Like-named read-outs stand apart in the source and are kept apart here.
Assays:
[1] = target: T1, human EGFR (aa 1 - 1,210), on cells (human, UniProt P00533 25-1210); experiment: flow cytometry, A431 cells
T1 construct: also called EGFR wt; NIH-3T3 + EGFR wt

[2] = target: T2, EGFR-moIgG2a-Fc fusion protein comprising the extracellular domain (aa 25 - 645) of human EGFR (human); experiment: competition ELISA, coated EGFR-moIgG2a-Fc; 1 nM IgG against 200 nM Fab-His
T2 construct: also called EGFR wt

[3] = target: T3, EGFR-His fusion protein comprising the extracellular domain of murine EGFR (aa 25 - 647) (murine, UniProt Q01279 25-647); experiment: ELISA, coated murine EGFR-His, 10 nM IgG
T3 construct: Bought protein; also called mouse EGFR; Sino Biological 51091-M08H

[4] = target: T1, human EGFR (aa 1 - 1,210), on cells; experiment: flow cytometry, DiFi cells
[5] = target: T1, human EGFR (aa 1 - 1,210), on cells; experiment: flow cytometry, FaDu cells
[6] = target: T1, human EGFR (aa 1 - 1,210), on cells; experiment: flow cytometry, LIM1215 cells
EGFR-moIgG2a-Fc F436A = target: T4, EGFR-moIgG2a-Fc F436A (human); experiment: ELISA, coated mutant EGFR-moIgG2a-Fc
T4 construct: see m31; also called EGFR F436A

EGFR-moIgG2a-Fc G434A = target: T5, EGFR-moIgG2a-Fc G434A (human); experiment: ELISA, coated mutant EGFR-moIgG2a-Fc
T5 construct: also called EGFR G434A

EGFR-moIgG2a-Fc Q435P = target: T6, EGFR-moIgG2a-Fc Q435P (human); experiment: ELISA, coated mutant EGFR-moIgG2a-Fc
T6 construct: see m31; also called EGFR Q435P

[7] = target: T7, EGFR-moIgG2a-Fc F436A/I462A (human); experiment: ELISA, coated mutant EGFR-moIgG2a-Fc
T7 construct: see m31; also called double mutant F436A/I462A

[8] = target: T8, EGFR-moIgG2a-Fc F381A/H383A (human); experiment: ELISA, coated mutant EGFR-moIgG2a-Fc
T8 construct: also called F381/H383

EGFR-moIgG2a-Fc I462A = target: T9, EGFR-moIgG2a-Fc I462A (human); experiment: ELISA, coated mutant EGFR-moIgG2a-Fc
T9 construct: see m31; also called EGFR I462A

[9] = target: T2, EGFR-moIgG2a-Fc fusion protein …; experiment: ELISA, coated EGFR-moIgG2a-Fc
EGFR-moIgG2a-Fc K489E = target: T10, EGFR-moIgG2a-Fc K489E (human); experiment: ELISA, coated mutant EGFR
T10 construct: See m39

[10] = target: T3, EGFR-His fusion protein comprising the …; experiment: ELISA, coated murine EGFR-His
EGFR-moIgG2a-Fc K487A = EGFR-moIgG2a-Fc K487A (human); experiment: ELISA, coated mutant EGFR-moIgG2a-Fc
EGFR-moIgG2a-Fc S484A = EGFR-moIgG2a-Fc S484A (human); experiment: ELISA, coated mutant EGFR-moIgG2a-Fc
[11] = target: T1, human EGFR (aa 1 - 1,210), on cells; experiment: cell-based or functional assay
CD3 on Jurkat cells = target: T11, CD3 on Jurkat cells (human, UniProt P07766 23-207); experiment: flow cytometry, Jurkat cells
T11 construct: whole, on cells; also called CD3-expressing Jurkat

[12] = target: T1, human EGFR (aa 1 - 1,210), on cells; experiment: cell-based or functional assay; remark: listed apart in the source
[13] = target: T1, human EGFR (aa 1 - 1,210), on cells; experiment: flow cytometry, HCT-116 cells
[14] = target: T1, human EGFR (aa 1 - 1,210), on cells; experiment: flow cytometry, FaDu cells; remark: listed apart in the source
[15] = target: T1, human EGFR (aa 1 - 1,210), on cells; experiment: flow cytometry, SW620 cells
[16] = target: T1, human EGFR (aa 1 - 1,210), on cells; experiment: flow cytometry, FaDu cells; remark: listed apart in the source
[17] = target: T1, human EGFR (aa 1 - 1,210), on cells; experiment: flow cytometry, LIM1215 cells; remark: listed apart in the source
[18] = target: T12, EGFR-His fusion protein comprising the extracellular domain of cynomolgus monkey EGFR (aa 1 - 645) (cynomolgus monkey, UniProt P55245 25-645 (rhesus entry)); experiment: ELISA, coated cynomolgus monkey EGFR-His
T12 construct: Bought protein; also called Sino Biological SIN-90285-C08H-50

[19] = target: T13, EGFR-His fusion protein comprising the extracellular domain (aa 25 - 645) of human EGFR (human, UniProt P00533 25-645); experiment: ELISA, coated EGFR-His
T13 construct: also called His-tagged extracellular domain of EGFR wt

[20] = target: T3, EGFR-His fusion protein comprising the …; experiment: ELISA, coated murine EGFR-His; remark: listed apart in the source
[21] = target: T1, human EGFR (aa 1 - 1,210), on cells; experiment: flow cytometry, FaDu cells; remark: listed apart in the source
[22] = target: T13, EGFR-His fusion protein comprising the …; experiment: ELISA, coated human EGFR-His
[23] = target: T1, human EGFR (aa 1 - 1,210), on cells; experiment: flow cytometry, DiFi cells; remark: listed apart in the source
[24] = target: T13, EGFR-His fusion protein comprising the …; experiment: ELISA, coated human EGFR
[25] = target: T2, EGFR-moIgG2a-Fc fusion protein …; experiment: ELISA, coated EGFR-moIgG2a-Fc; remark: listed apart in the source

B1: IgG GC1118 (antibody, V domains shown)
VH: EVQLVESGGGVVQPGGSLRLSCAASGFTFSDYDMSWIRQAPGKGLEWVSGILGGSERSYYRDSVKGRFTISRDNSRKTLYLQMNSLRAEDTAVYYCARHGSPGYTLYAWDYWGQGTTVTVSS
VL: DIVMTQTPLSLPVTPGEPASISCRSNQDLTHSNGNTYLEWYLQKPGQSPRLLIYKVSNRFSGVPDRFSGSGAGTDFTLRISRVEAEDVGVYYCMQGTHWPWTFGQGTKVDIKR
notes: also called GC118
Q: B1 was tested. Which EC50 [1] did it give?
A: The EC50 was 1.67 nM.

Q: Does B1 bind [2]?
A: Result: binds

Q: Does B1 bind [3]?
A: Result: binds

Q: What about the EC50 [4] of the same binder?
A: Its EC50 is 1.1 nM.

Q: What about the EC50 [5] of the same binder?
A: The EC50 was 0.47 nM.

Q: And the EC50 [6]?
A: The EC50 was 0.15 nM.

Q: Does B1 bind (EGFR-moIgG2a-Fc F436A)?
A: Result: binds

Q: Does B1 bind (EGFR-moIgG2a-Fc G434A)?
A: Result: binds

Q: Does B1 bind (EGFR-moIgG2a-Fc Q435P)?
A: Result: binds

Q: Does B1 bind [7]?
A: Result: binds

Q: Does B1 bind [8]?
A: Result: no binding

Q: Does B1 bind (EGFR-moIgG2a-Fc I462A)?
A: Result: binds

B2: Panitumumab (antibody, human IgG1, kappa, V domains shown)
VH: QVQLQESGPGLVKPSETLSLTCTVSGGSVSSGDYYWTWIRQSPGKGLEWIGHIYYSGNTNYNPSLKSRLTISIDTSKTQFSLKLSSVTAADTAIYYCVRDRVTGAFDIWGQGTMVTVSS
VL: DIQMTQSPSSLSASVGDRVTITCQASQDISNYLNWYQQKPGKAPKLLIYDASNLETGVPSRFSGSGSGTDFTFTISSLQPEDIATYFCQHFDHLPLAFGGGTKVEIKR
notes: also called IgG Panitumumab
Q: Does B2 bind [9]?
A: Result: binds

Q: Does B2 bind (EGFR-moIgG2a-Fc K489E)?
A: Result: binds

Q: Does B2 bind [10]?
A: Result: no binding (tested: 10 nM)

Q: Does B2 bind (EGFR-moIgG2a-Fc F436A)?
A: Result: binds

Q: Does B2 bind (EGFR-moIgG2a-Fc G434A)?
A: Result: binds

Q: Does B2 bind (EGFR-moIgG2a-Fc Q435P)?
A: Result: binds

Q: Does B2 bind [7]?
A: Result: binds

Q: Does B2 bind (EGFR-moIgG2a-Fc I462A)?
A: Result: binds

B3: Matuzumab (antibody, human IgG1, kappa, V domains shown)
VH: QVQLVQSGAEVKKPGASVKVSCKASGYTFTSHWMHWVRQAPGQGLEWIGEFNPSNGRTNYNEKFKSKATMTVDTSTNTAYMELSSLRSEDTAVYYCASRDYDYDGRYFDYWGQGTLVTVSS
VL: DIQMTQSPSSLSASVGDRVTITCSASSSVTYMYWYQQKPGKAPKLLIYDTSNLASGVPSRFSGSGSGTDYTFTISSLQPEDIATYYCQQWSSHIFTFGQGTKVEIKR
notes: also called IgG Matuzumab
Q: Does B3 bind [9]?
A: Result: binds

Q: What about the EC50 [1] of the same binder?
A: Its EC50 is 1.68 nM.

Q: Does B3 bind [10]?
A: Result: no binding (tested: 10 nM)

Q: And the EC50 [4]?
A: The EC50 was 0.95 nM.

Q: What about the EC50 [5] of the same binder?
A: The EC50 was 0.34 nM.

Q: And the EC50 [6]?
A: Its EC50 is 0.12 nM.

Q: Does B3 bind (EGFR-moIgG2a-Fc K487A)?
A: Result: no binding

Q: Does B3 bind (EGFR-moIgG2a-Fc F436A)?
A: Result: binds

Q: Does B3 bind (EGFR-moIgG2a-Fc G434A)?
A: Result: binds

Q: Does B3 bind (EGFR-moIgG2a-Fc Q435P)?
A: Result: binds

Q: Does B3 bind (EGFR-moIgG2a-Fc S484A)?
A: Result: no binding

Q: Does B3 bind [7]?
A: Result: binds

Q: Does B3 bind (EGFR-moIgG2a-Fc I462A)?
A: Result: binds

B4: Fab-eIg YU250-H10xhuU3 (bispecific antibody)
light: QSVLTQPPSVSGAPGQRVTISCSGGSSNVGRNGVNWFQHLPEKAPKLLIYYDAFLSSGVSDRFSGSKSGTSASLAIRGLQSDDEADYYCAAWDDSLYSWVFGGGTNLTVLGQPKAAPSVTLFPPSSEELQANKATLVCLISDFYPGAVTVAWKADSSPVKAGVETTTPSKQSNNKYAASSYLSLTPEQWKSHRSYSCQVTHEGSTVEKTVAPTECS
chain 1: not shown
chain 2: not shown
chain 3: not shown
notes: also called bispecific trivalent EGFRxCD3 Fab-eIg YU250-H10
Q: How did the “IC50 for cytotoxicity, FaDu + PBMCs (E:T 10:1)” value [11] turn out when B4 was run?
A: The value was 7 pM.

Q: And the “IC50 for cytotoxicity, LIM1215 + PBMCs (E:T 10:1)” value [11]?
A: The value was 3 pM.

Q: What about the EC50 (CD3 on Jurkat cells) of the same binder?
A: The EC50 was greater than 10 nM.

Q: And the “IC50 for cytotoxicity, FaDu + PBMCs (E:T 10:1)” value [12]?
A: The value was 4.8 pM.

Q: And the “IC50 for cytotoxicity, HCT-116 + PBMCs (E:T 10:1)” value [12]?
A: The value was 3 pM.

Q: What about the “IC50 for cytotoxicity, SW620 + PBMCs (E:T 10:1)” value [12] of the same binder?
A: The value was 4.9 pM.

Q: What about the EC50 [13] of the same binder?
A: Its EC50 is 0.13 nM.

Q: And the EC50 [14]?
A: The EC50 was 0.32 nM.

Q: What about the EC50 [15] of the same binder?
A: Its EC50 is 0.03 nM.

Q: And the EC50 [16]?
A: The EC50 was 0.76 nM.

Q: What about the EC50 [17] of the same binder?
A: The EC50 was 0.27 nM.

B5: IgG1 YU250-H10 (antibody)
light: QSVLTQPPSVSGAPGQRVTISCSGGSSNVGRNGVNWFQHLPEKAPKLLIYYDAFLSSGVSDRFSGSKSGTSASLAIRGLQSDDEADYYCAAWDDSLYSWVFGGGTNLTVLGQPKAAPSVTLFPPSSEELQANKATLVCLISDFYPGAVTVAWKADSSPVKAGVETTTPSKQSNNKYAASSYLSLTPEQWKSHRSYSCQVTHEGSTVEKTVAPTECS
heavy: not shown
notes: also called IgG YU250-H10
Q: For B5, which EC50 [18] is on record?
A: Its EC50 is 0.58 nM.

Q: What about the EC50 [19] of the same binder?
A: Its EC50 is 0.19 nM.

Q: And the EC50 [20]?
A: The EC50 was 0.45 nM.

Q: And the EC50 [21]?
A: The EC50 was 0.29 nM.

Q: What about the EC50 [1] of the same binder?
A: Its EC50 is 1.56 nM.

Q: And the EC50 [22]?
A: The EC50 was 0.28 nM.

Q: And the EC50 [4]?
A: Its EC50 is 0.73 nM.

Q: And the EC50 [5]?
A: Its EC50 is 0.27 nM.

Q: And the EC50 [23]?
A: Its EC50 is 0.78 nM.

Q: What about the EC50 [24] of the same binder?
A: Its EC50 is 0.78 nM.

Q: And the EC50 [25]?
A: Its EC50 is 0.27 nM.

Q: And the EC50 [6]?
A: Its EC50 is 0.09 nM.
